# Test results: paper PMC11238091
# Assays:
# [1] = biological target: S1-STMND1 (human STMND1 lacking the first seven amino acids, amino acids 8-276), His6-tagged (human) (UniProt H3BQB6); experiment: BLI
# [2] = biological target: STMND1-SLD (stathmin-like domain of human STMND1, amino acids 118-276), His6-tagged (human) (UniProt H3BQB6); experiment: BLI
substance,measurement,setting,value
Bovine brain tubulin (αβ-tubulin heterodimer) (from UniProt Q6B856 1-445) (complex),Kd,[1],400 nM
same,Kd,[2],600 nM
